Molecular target: T1, GST protein (UniProt P08515 1-218 = GST)
T1 construct: Control protein of the GST pull-down, on glutathione beads; also called protein consisting of the GST part alone; product of pGEX-6P-1
Test: GST pull-down with 35S-labeled in vitro translated protein, SDS-PAGE, autoradiography
Protocol: Using the protein GST-Cbl prepared above in (2), the presence or absence of the direct interaction of human and mouse CbAP40 proteins with the c-Cbl protein was confirmed by the GST-pull down method (Zikken Kougaku, Vol. 13, No. 6, 1994, p. 528, Matsushime, et al.). Using 0.5 μg of pcDNA-CbAP40 prepared above in Example 1(4) or pcDNA-mCbAP40 prepared above in Example 8(2) as a template, and additionally using 40 μl of TNT kit (TNT^R Quick Coupled Transcription/Translation System; Promega) and 1.3 MBq of a radioisotope (redivue Pro-mix L-[³⁵S]; Amersham) according to the attached protocol, human or mouse CbAP40 protein radioactively labeled was prepared by in vitro transcription and translation. Then, 15 μl each of the prepared solution of human or mouse CbAP40 protein was mixed with 1 μl of the GST protein or GST-Cbl purified on glutathione beads as described above in (2) to which 0.3 ml of Buffer A (50 mM Tris-HCl, pH 7.5, 10% glycerol, 120 mM NaCl, 1 mM EDTA, 0.1 mM EGTA, 0.5 mM PMSF, 0.5% NP-40) was added. The resulting mixture was shaken at 4° C. for one hour. Subsequently, the protein binding to the GST protein or GST-Cbl on the bead was co-precipitated by centrifugation. […] Consequently, a band never detected in mixing the GST protein was detected in case of mixing GST-Cbl.

T1 sequence (P08515 whole entry): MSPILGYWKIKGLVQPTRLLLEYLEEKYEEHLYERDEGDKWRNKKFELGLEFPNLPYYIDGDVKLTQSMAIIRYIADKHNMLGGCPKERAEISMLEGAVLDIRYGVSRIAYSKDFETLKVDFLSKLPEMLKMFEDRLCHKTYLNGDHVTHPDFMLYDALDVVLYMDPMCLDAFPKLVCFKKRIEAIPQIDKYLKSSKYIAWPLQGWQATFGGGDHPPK

binding result: no binding
B1: human CbAP40-V5-His6 fusion protein (other, not shown: small tags and cut ends)
chain: MMSSSWPGTSPRLSRGSGSCLTSGATGPCQADSSLKAGPGAGVFFLSSAEGEQISFLFDCIVRGISPTKGPFGLRPVLPDPSPPGPSTVEERVAQEALETLQLEKRLSLLSHAGRPGSGGDDRSLSSSSSEASHLDVSASSRLTAWPEQSSSSASTSQEGPRPAAAQAAGEAMVGASRPPPKPLRPRQLQEVGRQSSSDSGIATGSHSSYSSSLSSYAGSSLDVWRATDELGSLLSLPAAGAPEPSLCTCLPGTVEYQVPTSLRAHYDTPRSLCLAPRDHSPPSQGSPGNSAARDSGGQTSAGCPSGWLGTRRRGLVMEAPQGSEATLPGPAPGEPWEAGGPHAGPPPAFFSACPVCGGLKVNPPP
modifications: radioactively labeled by in vitro transcription and translation with redivue Pro-mix L-[35S]
notes: Made by in vitro transcription/translation (TNT kit) from pcDNA-CbAP40; 411 amino acids in total with the 45-residue C-terminal tag. 'mature' stands here for the full-length protein (no signal peptide is mentioned); also called human CbAP40 protein; Cbl associated protein 40

Reference: US20070015155A1 (published 2007)
